The results in this text go back to US4546077A, “Leucine dehydrogenase and a process for production thereof” (Unitika Ltd., priority 1982, dated 1985).

Substrate in data set [1]: CC(C)C[C@H](N)C(=O)O
The data set is described as follows: Michaelis constants of leucine dehydrogenase. Type of data set: biochemical. The settings on record: other: purified leucine dehydrogenase from Bacillus stearothermophilus; pH 11.0; 55.0 °C. The procedure:
(§1) Next, physico-chemical properties of the thus obtained leucine dehydrogenase of the present invention are shown below, wherein the leucine dehydrogenase was obtained from Bacillus stearothermophilus.
(§2) A solution mixture containing 1.25 mM NAD and 10 mM L-leucine in a […] glycine-KCl-KOH buffer solution having pH 11 was prepared. A suitable amount of a leucine dehydrogenase was added to the solution mixture and the increment of a reduced type NAD per unit time at 55° C. was measured as an increment of the absorbancy at 340 nm. The amount of the enzyme which made it possible to increase the absorbancy of 1μ mole of NADH at 340 nm per minute was set at 1 unit.

Substrate in data set [2]: NC(=O)c1ccc[n+]([C@@H]2O[C@H](COP(=O)([O-])OP(=O)(O)OC[C@H]3O[C@@H](n4cnc5c(N)ncnc54)[C@H](O)[C@@H]3O)[C@@H](O)[C@H]2O)c1
Kind of data set: Michaelis constants of leucine dehydrogenase. In kind it is biochemical. The conditions noted are these: other: purified leucine dehydrogenase from Bacillus stearothermophilus; pH 11.0; 55.0 °C. The protocol:
as §1, §2

B1: leucine dehydrogenase obtained from Bacillus stearothermophilus (Geobacillus stearothermophilus) (protein)
chain: MELFKYMETYDYEQVLFCQDKESGLKAIIAIHDTTLGPALGGTRMWMYNSEEEALEDALRLARGMTYKNAAAGLNLGGGKTVIIGDPRKDKNEAMFRAFGRFIQGLNGRYITAEDVGTTVADMDIIYQETDYVTGISPEFGSSGNPSPATAYGVYRGMKAAAKEAFGSDSLEGKVVAVQGVGNVAYHLCRHLHEEGAKLIVTDINKEVVARAVEEFGAKAVDPNDIYGVECDIFAPCALGGIINDQTIPQLKAKVIAGSADNQLKEPRHGDIIHEMGIVYAPDYVINAGGVINVADELYGYNRERAMKKIEQIYDNIEKVFAIAKRDNIPTYVAADRMAEERIETMRKARSPFLQNGHHILSRRRAR
notes: the leucine dehydrogenase was obtained from Bacillus stearothermophilus; endogenous in cells; host or cells: Bacillus stearothermophilus (enzyme isolated and purified from the cultured bacteria)
Turning to B1, the figures for the Km in data set [1] and in data set [2] were 1500 µM and 400 µM, respectively.
